Series [1] deals with T1, Zur WT (Escherichia coli, UniProt P0AC51 1-171).
T1 sequence: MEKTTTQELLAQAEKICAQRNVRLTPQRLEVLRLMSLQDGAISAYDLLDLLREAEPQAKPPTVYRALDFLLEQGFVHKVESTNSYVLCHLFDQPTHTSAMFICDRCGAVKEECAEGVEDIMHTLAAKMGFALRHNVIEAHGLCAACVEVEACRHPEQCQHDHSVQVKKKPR
The experiment in a line: X-ray crystallography; Zn2+ (2 per monomer), 2.50 A; EMSA: 10 mM Tris pH 8.0, 10 mM NaCl, 100 mM K-glutamate, 167 mM KCl, 1.5 mM MgCl2, 1 mM CaCl2, 50 uM ZnSO4, 1 mM DTT, 0.1 ug/ml BSA, 2 ug/ml salmon sperm DNA, DNA <=45 pM, 22 C, 30 min. To be noted: protein: recombinant; chain copies: 4; 3' overhang 2 nt on both strands. A general note: Mobility shift assays separate free from complexed probe on a gel.

Series [2] deals with T1, Zur WT. The experiment in a line: X-ray crystallography; Zn2+; Br-DNA, 3.5 A; EMSA: 10 mM Tris pH 8.0, 10 mM NaCl, 100 mM K-glutamate, 167 mM KCl, 1.5 mM MgCl2, 1 mM CaCl2, 50 uM ZnSO4, 1 mM DTT, 0.1 ug/ml BSA, 2 ug/ml salmon sperm DNA, DNA <=45 pM, 22 C, 30 min. The note with it: protein: recombinant; chain copies: 4; 3' overhang 2 nt on both strands.
For series [3], the target named is T1, Zur WT. Description: EMSA; 50 uM ZnSO4; Kd1, first dimer; EMSA: 10 mM Tris pH 8.0, 10 mM NaCl, 100 mM K-glutamate, 167 mM KCl, 1.5 mM MgCl2, 1 mM CaCl2, 50 uM ZnSO4, 1 mM DTT, 0.1 ug/ml BSA, 2 ug/ml salmon sperm DNA, DNA <=45 pM, 22 C, 30 min. The note with it: protein: recombinant; chain copies: 4; label: 5'-Cy5 on strand 1; blunt.
For series [4], the target named is T1, Zur WT. Description: EMSA; 50 uM ZnSO4; macroscopic Kd-app for two dimers; EMSA: 10 mM Tris pH 8.0, 10 mM NaCl, 100 mM K-glutamate, 167 mM KCl, 1.5 mM MgCl2, 1 mM CaCl2, 50 uM ZnSO4, 1 mM DTT, 0.1 ug/ml BSA, 2 ug/ml salmon sperm DNA, DNA <=45 pM, 22 C, 30 min. The note with it: protein: recombinant; chain copies: 4; label: 5'-Cy5 on strand 1; blunt.
Series [5] deals with the molecule itself. Description: crystal structure; Zn-loaded Zur with the 31 bp znuABC operator duplex (31mer2bpOH); hanging drop, 1.5 M ammonium sulfate, 0.1 M citrate pH 5.5, 4°C; refined to 2.50 Å.
Series [6] concerns the molecule itself. Description: SEC; analytical gel filtration of WT Zur, C103S and C88S; elution volume of WT (10.9 ml) as reference; column and buffer not told. (Size exclusion chromatography separates by hydrodynamic size, large species first.)
The next series concerns the target T2, Zur D49A (Escherichia coli, UniProt P0AC51 1-171, D49A).
T2 sequence: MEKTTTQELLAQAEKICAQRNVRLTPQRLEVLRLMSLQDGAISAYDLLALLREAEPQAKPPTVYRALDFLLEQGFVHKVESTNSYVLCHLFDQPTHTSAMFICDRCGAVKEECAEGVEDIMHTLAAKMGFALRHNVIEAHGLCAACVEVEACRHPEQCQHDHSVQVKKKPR
Description: EMSA; 50 uM ZnSO4; Kd1, first dimer; EMSA: 10 mM Tris pH 8.0, 10 mM NaCl, 100 mM K-glutamate, 167 mM KCl, 1.5 mM MgCl2, 1 mM CaCl2, 50 uM ZnSO4, 1 mM DTT, 0.1 ug/ml BSA, 2 ug/ml salmon sperm DNA, DNA <=45 pM, 22 C, 30 min. To be noted: protein: recombinant; chain copies: 2; label: 5'-Cy5 on strand 1; blunt.

A further series has as its target T3, Zur R52A (Escherichia coli, UniProt P0AC51 1-171, R52A).
T3 sequence: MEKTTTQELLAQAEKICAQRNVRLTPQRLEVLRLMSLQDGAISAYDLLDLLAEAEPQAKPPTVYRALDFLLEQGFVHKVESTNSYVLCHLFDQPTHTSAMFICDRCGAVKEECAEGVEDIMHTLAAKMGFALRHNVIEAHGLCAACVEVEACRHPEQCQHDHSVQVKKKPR
Described as above. The note with it: protein: recombinant; chain copies: 2; label: 5'-Cy5 on strand 1; blunt.

Series [7] deals with T1, Zur WT. The experiment in a line: EMSA; 50 uM ZnSO4; macroscopic Kd-app for two dimers, Hill ~2.1; EMSA: 10 mM Tris pH 8.0, 10 mM NaCl, 100 mM K-glutamate, 167 mM KCl, 1.5 mM MgCl2, 1 mM CaCl2, 50 uM ZnSO4, 1 mM DTT, 0.1 ug/ml BSA, 2 ug/ml salmon sperm DNA, DNA <=45 pM, 22 C, 30 min. The note with it: protein: recombinant; chain copies: 4; label: 5'-Cy5 on strand 1; blunt.

For series [8], the target named is T1, Zur WT. Description: EMSA; 50 uM ZnSO4; macroscopic Kd-app for two dimers; table footnote a not in material; EMSA: 10 mM Tris pH 8.0, 10 mM NaCl, 100 mM K-glutamate, 167 mM KCl, 1.5 mM MgCl2, 1 mM CaCl2, 50 uM ZnSO4, 1 mM DTT, 0.1 ug/ml BSA, 2 ug/ml salmon sperm DNA, DNA <=45 pM, 22 C, 30 min. To be noted: protein: recombinant; chain copies: 4; label: 5'-Cy5 on strand 1; blunt.

B1: 31mer2bpOH (dsDNA)
DNA 1: AGAAGTGTGATATTATAACATTTCATGACTATG
DNA 2: TAGTCATGAAATGTTATAATATCACACTTCTCA
Regarding B1, in the series with Zur WT [1], the binding result was “binds”.

B2: Br-31mer2bpOH (dsDNA)
DNA 1: AGAAGTGUGATATTATAACATUTCATGACTATG
DNA 2: TAGTCATGAAATGTTATAATATCACACTTCTCA
modifications: 5-bromo-dU at positions 8 and 22 of strand 1 (dU-Br)
As for B2, the binding result in the series with Zur WT [2] is reported as “binds”.

B3: PpliG 51 bp (dsDNA)
DNA 1: CCATGAGTACGATGAACTGTTATAATATAACAATCCCTAACGGGAGAAGG
DNA 2: CCTTCTCCCGTTAGGGATTGTTATATTATAACAGTTCATCGTACTCATGG
In the case of B3, the Kd turned out to be 28 nM with Zur WT [3] and 5.2e-16 M^2 with Zur WT [4].

B4: E. coli zinc uptake regulator (Zur), wild type (natural protein)
chain: MEKTTTQELLAQAEKICAQRNVRLTPQRLEVLRLMSLQDGAISAYDLLDLLREAEPQAKPPTVYRALDFLLEQGFVHKVESTNSYVLCHLFDQPTHTSAMFICDRCGAVKEECAEGVEDIMHTLAAKMGFALRHNVIEAHGLCAACVEVEACRHPEQCQHDHSVQVKKKPR
notes: Zinc uptake regulator Zur of Escherichia coli; the crystal model includes residues 5-152 of each of four chains (A-D); Zinc-loaded (two Zn2+ sites per monomer); no tag is named; also called EcZur; WTZur; source: E. coli BL21 (DE3), pET24d-based plasmid, purified (heparin column)
Regarding B4, in series [5], the “stoichiometry N” value is 4.

B5: E. coli Zur site B mutant C88S (natural protein)
chain: MEKTTTQELLAQAEKICAQRNVRLTPQRLEVLRLMSLQDGAISAYDLLDLLREAEPQAKPPTVYRALDFLLEQGFVHKVESTNSYVLSHLFDQPTHTSAMFICDRCGAVKEECAEGVEDIMHTLAAKMGFALRHNVIEAHGLCAACVEVEACRHPEQCQHDHSVQVKKKPR
notes: Zinc uptake regulator Zur of Escherichia coli with C88S (zinc site B); also called B-site (C88S) mutant; source: E. coli BL21 (DE3), pET24d-based plasmid, purified (heparin column)
On to B5, for which the “stoichiometry N” value in [6] amounted to 2.

B6: PznuABC 51 bp (dsDNA)
DNA 1: CCGAATATGAGAAGTGTGATATTATAACATTTCATGACTACTGCAAGACGG
DNA 2: CCGTCTTGCAGTAGTCATGAAATGTTATAATATCACACTTCTCATATTCGG
For the molecule B6, the Kd with Zur D49A was found to be 2.1 nM; in the series with Zur R52A, 2.6 nM; with Zur WT [7] it was 8.2e-18 M^2.

B7: PL31p 51 bp (dsDNA)
DNA 1: CCATCATTTTTACCTGTTATGTTATAACATAACCATAAAGATACATGCTGG
DNA 2: CCAGCATGTATCTTTATGGTTATGTTATAACATAACAGGTAAAAATGATGG
As for B7, the Kd with Zur WT [8] turned out to be 2.5e-20 M^2.

B8: PzinT 51 bp (dsDNA)
DNA 1: CCCATTTTGCTATATGTTACAATATAACATTACACATCATATACATTAAGG
DNA 2: CCTTAATGTATATGATGTGTAATGTTATATTGTAACATATAGCAAAATGGG
With B8, the Kd in the series with Zur WT [8] was 5.3e-20 M^2.

As a reminder, the stoichiometry N is the number of molecules, sites or subunits per partner or assembly.

Values taken from paper PMC4219657, “Structural and Mechanistic Basis of Zinc Regulation Across the E. coli Zur Regulon” (PLoS Biology, 2014).
